Measurements from patent US9840693B2, “Polypeptide hydrogels and uses related thereto” (Emory University, priority 2014, dated 2017).
“Also recorded” adds a separate entry of the source.

Assays:
[1] = Self-assembly of peptides into hydrogel at physiologic pH and osmolarity; assay type: physicochemical; settings: for self-assembly into a hydrogel when mixed with peptide hydrogel R: mixed with R at a 1:10 ratio; for self-assemble at physiologic pH and osmolarity: peptide alone; for Self-Assembly: peptide alone at 1 % w/v
Excerpt: JAG-1 (CDDYYYGFGCNKFCRPR)(SEQ ID NO: 1) can be incorporated into the self-assembling peptides to generate bioactive scaffolds with the potential to regulate Notch signaling in a ligand density dependent manner. The self-assembling sequence RADA (or R) (RARADADARARADADA)(SEQ ID NO: 2) with a 7 glycine linker following the terminal alanine is followed by the active sequence of the Notch ligand Jagged-1 (JAG-1) to create the fusion peptide (RJ). As a control, the JAG-1 portion may be replaced with the scrambled sequence (RCGPDCFDNYGRYKYCF)(SEQ ID NO:4) (RS) with no known cell surface binding site can be used as a control to check for the specificity of JAG 1 in activating Notch-1 signaling. […] These peptide scaffolds self-assemble at physiological pH and osmolarity (in 295 mM sucrose solution) into nanofiber hydrogels. After synthesis, the peptides can be purified by high pressure liquid chromatography on reverse-phase columns. Purity can be assessed by HPLC and the presence of a correct composition by amino acid analysis.
The self-assembling peptide (R) and the peptides with Jag-1 (RJ) or scrambled (RS) attached are weighed out to create hydrogels of 1-3% w/v, i.e., hydrogels with varying % concentration from 1 to 3% w/v peptide wherein R is combined with RJ or RS in a ratio of 1:10.
A sucrose solution (295 mM) is added to the peptides and sonicated. The RJ or RS peptide solutions are mixed with the R solution at 1:10 and allowed to form the hydrogel. The time required to form the hydrogel depends on the concentration of the gel. In certain embodiments, the disclosure relates to the synthesis of self assembling peptides which contain the active ligand JAG-1 attached to it. This enables easy dose manipulation of JAG-1 to achieve Notch-1 activation.

[2] = Atomic force microscopy measurement of Young's modulus of hydrogels; assay type: physicochemical; settings: in comparison with unmodified hydrogels at both 1 and 2% w/v
Experimental: (§1) Peptides have been created containing a ligand for Notch-1 activation that self assembles into a hydrogel. For determination of swelling ratio, the hydrogels were created in a […] total volume and allowed to swell in 295 mM sucrose solution. After 24 h, the wet weight of the gels was measured. The gels were then lyophilized and the dry weight noted. Swelling ratio was calculated as the (wet weight−dry weight)/wet weight. […] The average Young's modulus for 1% and 2% hydrogels was 500 Pa and 1800 Pa respectively (FIG. 1A).
Cardiac progenitor cells (CPCs) were isolated from 2 month old male Sprague Dawley rats by digesting the heart with Collagenase followed by magnetic sorting for cKit positive cells. The CPCs were cultured on Ham's F12 supplemented with FBS, LIF, bFGF, L-Glutamine and antibiotics. Single cell cloning was performed by limiting dilution to obtain CPCs with >90% expression of cKit and the cardiac transcription factors nkx2-5 and gata-4. […] The Young's modulus of the hydrogels was determined using an MFP-3DBIO atomic force microscope (Asylum Research; Santa Barbara, Calif.), with a 4.74 μm diameter bead tippedsilicon nitride cantilever.

[3] = tested on: embryoid bodies (EBs) from mouse embryonic stem cells; test: qPCR gene expression of mouse embryoid bodies cultured in 1% hydrogels; assay type: cell-based; settings: mouse EBs in 1% hydrogels
Experimental: To determine if gene expression changes in response to hydrogel-mediated Notch1 activation were conserved between stem/progenitor cells, day 2 embryoid bodies (EBs) from mouse embryonic stem cells were cultured in low concentration (1%) hydrogels for 48 h.

[4] = tested on: Cardiac progenitor cells (CPCs); test: qPCR gene expression of CPCs cultured in hydrogels; assay type: cell-based, rat; settings: 48 h
Experimental: Cardiac progenitor cells (CPCs) were isolated from 2 month old male Sprague Dawley rats by digesting the heart with Collagenase followed by magnetic sorting for cKit positive cells. The CPCs were cultured on Ham's F12 supplemented with FBS, LIF, bFGF, L-Glutamine and antibiotics. Single cell cloning was performed by limiting dilution to obtain CPCs with >90% expression of cKit and the cardiac transcription factors nkx2-5 and gata-4. CPCs were cultured in self assembling hydrogels of various concentrations (1-3% w/v) with either empty, scrambled or JAG-1 peptide in 1:10 ratio for 48 hrs in Millicell Insets. qRT-PCRs were performed using Power SYBR green on the StepOne Plus Applied Biosystems machine. The Young's modulus of the hydrogels was determined using an MFP-3DBIO atomic force microscope (Asylum Research; Santa Barbara, Calif.), with a 4.74 μm diameter bead tippedsilicon nitride cantilever.
CPCs were clonally expanded and characterized to be >96% Notch1+, >90% c-Kit+, nkx2-5+(nk2 homeobox 5) and gata4+(GATA binding protein 4). CPCs were cultured in 1 or 2% (w/v) SAP hydrogels (1R, 1RS, 1RJ or 2R, 2RS, 2RJ) for 48 h.

[5] = Swelling ratio of hydrogels; assay type: physicochemical; settings: n=3
Experimental: as §1

Notch1 [6] = test: Notch1 activation in CHO cells with Notch1-responsive YFP expression, 2D culture with peptide in media; assay type: cell-based; settings: media containing peptide at 40 μm, 48 h
Experimental: (§2) CHO cells with Notch1-responsive YFP expression were cultured in media containing 20 or 40 μm R, RS or RJ for 48 h. […] These cells were also cultured in 3D in 1-3% w/v hydrogels composed of R, RS or RJ for 48 h.

Notch1 [7] = test: Notch1 activation in CHO cells with Notch1-responsive YFP expression, 3D culture in hydrogels; assay type: cell-based; settings: 48 h
Experimental: as §2

Substance | self-assembly into a hydrogel when mixed with peptide hydrogel R [1] | self-assemble at physiologic pH and osmolarity [1] | Self-Assembly [1] | effect of addition of peptide to the SAP on Young's modulus [2] | effect of peptide addition on network structure (swelling ratio) [5] | other results
CDDYYYGFGCNKFCRPR [JAG-1] | self-assembles into a hydrogel | do not self-assemble | – | – | – | –
H2N-RARADADARARADADA-OH (H-RARADADARARADADA-OH) [unmodified/empty control] | – | – | yes | – | – | –
RARADADARARADADA(G7)(JAG-1) (RARADADARARADADAGGGGGGGCDDYYYGFGCNKFCRPR) [RJ] | – | – | no | did not alter the Young's modulus | no significant effect | endothelial and smooth muscle gene expression [3]: promotes; Notch1 signaling in CPCs ([4]; 1% hydrogels): activates Notch1 signaling; Notch1 signaling in CPCs ([4]; 2% hydrogels): activates Notch1 signaling; endothelial and smooth muscle gene expression ([4]; CPCs in 1% hydrogels): promotes; expression of Hey1 (Notch1 downstream target) ([4]; CPCs in 1 or 2% hydrogels, qPCR): increased expression; cardiac gene expression ([4]; CPCs in 2% hydrogels): promotes; Notch1 activation (YFP expression) (Notch1 [6]): significant increase; Notch1 activation (YFP expression) (Notch1 [7]; 2% w/v hydrogel): maximum Notch1 activation; also recorded: highest levels of Notch1 activation; Notch1 activation (YFP expression) (Notch1 [7]; further increase to 3% w/v hydrogel): did not promote Notch1 activation
RARADADARARADADA(G7)(SCR-1) (RARADADARARADADAGGGGGGGRCGPDCFDNYGRYKYCF) [RS, reference compound] | – | – | no | did not alter the Young's modulus | no significant effect | –
RCGPDCFDNYGRYKYCF [SCR-1] | self-assembles into a hydrogel | do not self-assemble | – | – | – | –
